From patent US20220204643A1 (published 2022)

Tests used:
[1] = biological target: T1, X-linked inhibitor of apoptosis, transcript variant 2 (human, UniProt P98170 1-497)
T1 construct: HuProt array protein, full-length recombinant from yeast; also called XIAP

DEAD-box helicase 18 = biological target: T2, DEAD-box helicase 18 (human, UniProt Q9NVP1 1-670)
T2 construct: HuProt array protein, full-length recombinant from yeast; also called DDX18
T2 sequence: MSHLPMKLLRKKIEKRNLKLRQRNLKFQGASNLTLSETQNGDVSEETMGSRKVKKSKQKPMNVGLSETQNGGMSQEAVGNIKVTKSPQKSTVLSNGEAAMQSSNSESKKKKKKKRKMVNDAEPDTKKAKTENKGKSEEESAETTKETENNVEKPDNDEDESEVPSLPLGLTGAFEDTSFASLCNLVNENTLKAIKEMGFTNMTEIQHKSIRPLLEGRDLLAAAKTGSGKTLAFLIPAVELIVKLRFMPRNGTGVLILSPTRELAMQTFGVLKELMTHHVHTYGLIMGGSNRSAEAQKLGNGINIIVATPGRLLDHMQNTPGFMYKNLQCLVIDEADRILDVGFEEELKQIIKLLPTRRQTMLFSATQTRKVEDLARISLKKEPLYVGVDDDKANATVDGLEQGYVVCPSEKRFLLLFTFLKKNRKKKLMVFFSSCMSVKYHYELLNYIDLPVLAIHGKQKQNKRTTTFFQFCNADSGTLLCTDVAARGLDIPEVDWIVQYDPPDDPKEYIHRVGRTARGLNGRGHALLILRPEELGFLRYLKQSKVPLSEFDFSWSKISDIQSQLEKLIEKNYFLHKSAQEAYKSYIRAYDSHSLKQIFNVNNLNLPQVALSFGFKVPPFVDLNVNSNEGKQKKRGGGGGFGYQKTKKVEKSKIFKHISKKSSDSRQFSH

[2] = biological target: T3, syntaxin 1A, transcript variant 1 (human, UniProt Q16623 1-288)
T3 construct: HuProt array protein, full-length recombinant from yeast; also called STX1A
T3 sequence (Q16623 whole entry, change not shown): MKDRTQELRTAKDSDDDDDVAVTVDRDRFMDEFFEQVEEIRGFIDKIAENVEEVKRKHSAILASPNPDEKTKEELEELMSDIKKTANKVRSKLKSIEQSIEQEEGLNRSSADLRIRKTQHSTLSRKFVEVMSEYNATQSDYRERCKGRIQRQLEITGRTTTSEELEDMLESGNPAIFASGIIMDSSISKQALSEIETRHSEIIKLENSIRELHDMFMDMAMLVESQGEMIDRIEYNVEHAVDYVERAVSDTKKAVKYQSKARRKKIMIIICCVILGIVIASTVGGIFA

[3] = biological target: T4, geminin DNA replication inhibitor, transcript variant 1 (human, UniProt O75496 1-209)
T4 construct: HuProt array protein, full-length recombinant from yeast; also called GMNN
T4 sequence: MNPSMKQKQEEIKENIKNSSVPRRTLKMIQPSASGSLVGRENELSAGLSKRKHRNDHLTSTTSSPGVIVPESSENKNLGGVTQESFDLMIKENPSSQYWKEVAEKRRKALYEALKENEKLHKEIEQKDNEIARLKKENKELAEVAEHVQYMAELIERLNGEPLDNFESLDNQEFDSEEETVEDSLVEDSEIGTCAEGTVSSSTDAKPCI

[4] = biological target: T5, nucleosome assembly protein 1 like 1, transcript variant 1 (human, UniProt P55209 2-388)
T5 construct: HuProt array protein, full-length recombinant from yeast; also called NAP1L1
T5 sequence: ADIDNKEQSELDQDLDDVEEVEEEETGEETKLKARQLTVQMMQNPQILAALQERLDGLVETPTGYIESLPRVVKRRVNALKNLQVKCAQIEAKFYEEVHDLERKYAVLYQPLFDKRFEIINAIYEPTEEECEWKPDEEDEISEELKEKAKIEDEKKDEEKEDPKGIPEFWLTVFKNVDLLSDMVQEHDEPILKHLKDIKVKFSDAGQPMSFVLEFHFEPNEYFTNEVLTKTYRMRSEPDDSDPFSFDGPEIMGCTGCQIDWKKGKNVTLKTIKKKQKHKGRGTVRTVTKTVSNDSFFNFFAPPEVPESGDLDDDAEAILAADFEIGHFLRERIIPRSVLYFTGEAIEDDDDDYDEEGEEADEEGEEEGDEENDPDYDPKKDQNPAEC

[5] = biological target: T6, JPX transcript, XIST activator (human)
T6 construct: HuProt array protein; labelled _frag
T6 chain: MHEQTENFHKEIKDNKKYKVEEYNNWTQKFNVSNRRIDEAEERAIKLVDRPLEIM

LN608403.1_frag = biological target: T7, LN608403.1_frag (human)
T7 construct: HuProt array protein; labelled _frag
T7 chain: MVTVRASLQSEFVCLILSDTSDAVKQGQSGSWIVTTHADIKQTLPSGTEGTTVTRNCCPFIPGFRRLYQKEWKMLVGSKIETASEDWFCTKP

[6] = biological target: T8, charged multivesicular body protein 4B (human, UniProt Q9H444 2-224)
T8 construct: HuProt array protein, full-length recombinant from yeast; also called CHMP4B
T8 sequence: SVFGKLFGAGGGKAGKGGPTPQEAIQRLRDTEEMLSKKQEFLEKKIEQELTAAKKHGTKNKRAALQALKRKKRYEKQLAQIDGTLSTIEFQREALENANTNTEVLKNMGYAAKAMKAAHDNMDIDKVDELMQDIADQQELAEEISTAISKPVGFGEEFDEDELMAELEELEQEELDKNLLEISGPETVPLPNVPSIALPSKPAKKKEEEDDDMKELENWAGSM

[7] = biological target: T9, endosome associated trafficking regulator 1, transcript variant 2 (human, UniProt Q96C92 59-435)
T9 construct: HuProt array protein, full-length recombinant from yeast; also called SDCCAG3
T9 chain: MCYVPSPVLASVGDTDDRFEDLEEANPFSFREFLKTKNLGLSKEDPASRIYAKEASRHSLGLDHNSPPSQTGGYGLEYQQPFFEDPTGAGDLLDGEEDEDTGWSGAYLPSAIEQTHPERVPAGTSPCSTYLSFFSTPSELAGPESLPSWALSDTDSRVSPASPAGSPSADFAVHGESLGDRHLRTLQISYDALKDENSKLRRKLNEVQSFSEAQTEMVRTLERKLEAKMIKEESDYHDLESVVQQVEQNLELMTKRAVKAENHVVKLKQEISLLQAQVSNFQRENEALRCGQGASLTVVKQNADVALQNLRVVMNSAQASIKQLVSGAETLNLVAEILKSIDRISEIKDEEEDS

[8] = biological target: T10, PNMA family member 5, transcript variant 2 (human, UniProt Q96PV4 1-448)
T10 construct: HuProt array protein, full-length recombinant from yeast; also called PNMA5
T10 sequence (Q96PV4 other isoform, or with tags, fused parts or gaps mutant limits assumed): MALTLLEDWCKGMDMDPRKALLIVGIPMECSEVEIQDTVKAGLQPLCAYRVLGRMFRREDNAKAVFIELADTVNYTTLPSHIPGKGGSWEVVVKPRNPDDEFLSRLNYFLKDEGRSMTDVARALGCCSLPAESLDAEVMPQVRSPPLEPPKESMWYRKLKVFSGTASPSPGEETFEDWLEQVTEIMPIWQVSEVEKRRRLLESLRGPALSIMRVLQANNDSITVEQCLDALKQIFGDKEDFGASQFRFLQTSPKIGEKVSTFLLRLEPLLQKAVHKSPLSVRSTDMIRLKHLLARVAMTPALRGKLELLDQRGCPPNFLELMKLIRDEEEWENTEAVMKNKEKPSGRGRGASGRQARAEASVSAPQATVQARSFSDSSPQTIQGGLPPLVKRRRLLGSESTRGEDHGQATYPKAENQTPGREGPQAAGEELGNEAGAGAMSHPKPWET

[9] = biological target: T11, zinc finger protein 326, transcript variant 1 (human, UniProt Q5BKZ1 1-582)
T11 construct: HuProt array protein, full-length recombinant from yeast; also called ZNF326
T11 sequence: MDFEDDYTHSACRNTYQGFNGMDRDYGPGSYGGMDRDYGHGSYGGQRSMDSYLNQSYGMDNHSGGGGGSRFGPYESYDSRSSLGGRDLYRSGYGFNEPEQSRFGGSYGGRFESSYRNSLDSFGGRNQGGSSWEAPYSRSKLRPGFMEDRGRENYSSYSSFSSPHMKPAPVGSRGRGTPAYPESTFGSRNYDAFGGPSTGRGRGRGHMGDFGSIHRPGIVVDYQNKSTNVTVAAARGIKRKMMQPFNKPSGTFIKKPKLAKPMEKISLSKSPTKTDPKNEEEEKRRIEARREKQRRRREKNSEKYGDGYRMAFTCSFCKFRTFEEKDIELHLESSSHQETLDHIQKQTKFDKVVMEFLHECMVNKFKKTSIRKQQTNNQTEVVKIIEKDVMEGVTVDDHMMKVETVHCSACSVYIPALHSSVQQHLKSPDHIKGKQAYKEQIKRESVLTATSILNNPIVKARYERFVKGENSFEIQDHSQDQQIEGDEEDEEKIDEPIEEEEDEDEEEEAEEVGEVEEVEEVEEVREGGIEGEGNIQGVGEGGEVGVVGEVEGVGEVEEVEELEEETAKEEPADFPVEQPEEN

[10] = biological target: T12, phospholipase C delta 1, transcript variant 2 (human, UniProt P51178 1-756)
T12 construct: HuProt array protein, full-length recombinant from yeast; also called PLCD1
T12 sequence: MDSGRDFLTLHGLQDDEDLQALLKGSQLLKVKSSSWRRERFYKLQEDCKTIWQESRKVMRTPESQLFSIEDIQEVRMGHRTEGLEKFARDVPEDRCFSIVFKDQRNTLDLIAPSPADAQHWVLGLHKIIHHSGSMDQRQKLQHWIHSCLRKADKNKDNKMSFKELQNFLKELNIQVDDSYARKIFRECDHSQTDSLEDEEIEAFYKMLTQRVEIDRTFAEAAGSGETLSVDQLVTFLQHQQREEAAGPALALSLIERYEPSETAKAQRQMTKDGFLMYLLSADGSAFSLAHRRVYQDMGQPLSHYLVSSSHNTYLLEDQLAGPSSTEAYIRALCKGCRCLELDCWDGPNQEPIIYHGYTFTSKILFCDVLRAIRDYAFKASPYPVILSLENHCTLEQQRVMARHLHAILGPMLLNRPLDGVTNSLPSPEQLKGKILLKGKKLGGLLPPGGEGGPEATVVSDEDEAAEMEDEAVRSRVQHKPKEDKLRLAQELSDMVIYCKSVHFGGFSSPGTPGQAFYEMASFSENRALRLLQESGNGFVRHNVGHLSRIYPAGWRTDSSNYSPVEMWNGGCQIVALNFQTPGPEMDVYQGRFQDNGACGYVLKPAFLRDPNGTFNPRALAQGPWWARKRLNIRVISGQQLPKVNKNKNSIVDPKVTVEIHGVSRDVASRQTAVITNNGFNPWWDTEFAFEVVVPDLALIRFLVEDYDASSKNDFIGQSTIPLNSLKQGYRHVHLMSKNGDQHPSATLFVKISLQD

[11] = biological target: T13, Egf like and emi domain containing 1, pseudogene (human, UniProt Q0D2K5 1-195)
T13 construct: HuProt array protein; pseudogene product; also called EGFEM1P
T13 sequence: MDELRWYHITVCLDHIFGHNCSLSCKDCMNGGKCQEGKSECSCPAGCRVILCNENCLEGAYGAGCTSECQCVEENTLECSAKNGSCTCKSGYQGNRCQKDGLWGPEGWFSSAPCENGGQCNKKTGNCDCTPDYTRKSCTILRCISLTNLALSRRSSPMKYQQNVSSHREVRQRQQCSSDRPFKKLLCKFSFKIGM

T1 sequence (P98170 whole entry, change not shown): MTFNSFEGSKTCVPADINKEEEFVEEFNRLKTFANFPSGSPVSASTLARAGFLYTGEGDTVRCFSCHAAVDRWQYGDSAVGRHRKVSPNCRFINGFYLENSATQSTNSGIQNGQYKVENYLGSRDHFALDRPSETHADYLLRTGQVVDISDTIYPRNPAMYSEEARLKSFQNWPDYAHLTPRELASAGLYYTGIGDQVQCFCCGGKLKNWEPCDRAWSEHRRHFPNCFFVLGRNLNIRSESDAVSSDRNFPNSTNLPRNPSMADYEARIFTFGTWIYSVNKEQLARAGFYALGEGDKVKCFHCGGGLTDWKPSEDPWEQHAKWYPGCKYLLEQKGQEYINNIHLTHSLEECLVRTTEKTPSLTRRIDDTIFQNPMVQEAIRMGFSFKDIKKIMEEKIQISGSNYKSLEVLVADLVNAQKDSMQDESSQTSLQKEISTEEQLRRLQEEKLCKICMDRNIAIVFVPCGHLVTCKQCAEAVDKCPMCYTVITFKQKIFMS

B1: TBRE1032 (antibody, V domains shown)
VH: EVQLVESGGGLVQPGGSLRLSCAASGFTFSSYDFHWVRQPTGKGLEWVSAIGTAGDTLYLDSVKGRFTISRENAKNSLYLQMNSLRAGDTAVYYCARVNWNSDTFDSWGQGTLVTVSS
VL: VSSELTQDPAVSVALGQTVRITCQGDSLRRYYASWYQQKAGQAPILVIYGENNRPSGIPDRFSGSGSGNTASLTITGAQAEDEADYYCDSRDSSGNLVVFGGGTKLTVL
notes: detected with anti-human IgG Fc
Question: Does B1 bind [1]?
Answer: Result: binds

B2: TBRE1027 (antibody, V domains shown)
VH: EVQLLESGGGLVQPGGSLRLSCAASGFTFSSYAMSWVRQAPGKGLEWVSTISGSGHSTYYADSVKGRFTISRDNSKNTLYLQMNSLRAEDTAVYYCAKSTLGGGFDFWGQGTLVTVSS
VL: DIQMTQSPFSLSASVGDRVTITCRASQSISSYLNWYQQKPGKAPKLLIYAASSLQSGVPSRFSGSGSGTDFTLTISSLQPEDFATYYCHQSYSTSLTFGGGTKVEIKR
notes: as for B1
Question: Which results are given for B2?
Answer: binding result (DEAD-box helicase 18): binds; binding result [2]: binds; binding result [3]: binds

B3: TCER1001 (antibody, V domains shown)
VH: EVQLVESGGGLVQPGRSLRLSCAASGFTFDDYAMHWVRQAPGKGLEWVSGISWNSGSIGYADSVKGRFTISRDNAKNSLYLQMNSLRAEDTALYYCAKDLLGFRDQRNYYGMDVWGQGTTVTVSS
VL: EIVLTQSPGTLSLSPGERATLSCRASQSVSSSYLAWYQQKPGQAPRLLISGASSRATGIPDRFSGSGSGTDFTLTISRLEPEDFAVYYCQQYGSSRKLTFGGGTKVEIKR
notes: as for B1
Question: Does B3 bind [4]?
Answer: Result: binds

B4: TBRE1045 (antibody, V domains shown)
VH: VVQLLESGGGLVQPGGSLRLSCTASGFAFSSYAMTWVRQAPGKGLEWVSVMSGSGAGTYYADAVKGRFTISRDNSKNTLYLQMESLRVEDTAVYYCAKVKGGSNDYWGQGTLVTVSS
VL: PYVLTQPPSVSVAPGQTARITCGGNNIGSKSVHWYQQKPGQAPVMVVYADRERPSGIPERLSGSNFGNTATLTISRVEAGDEADYYCQVWDSNNDHREVFGGGTKLTVLG
notes: as for B1
Question: What does the source list for B4?
Answer: binding result [5]: binds; binding result (LN608403.1_frag): binds

B5: TBRE1034 (antibody, V domains shown)
VH: QVQLVESGGGLVEPGGSLRLSCAASGFTFSDYYMSWIRQAPGKRLEWISHMSSGGNRRHYADSVRGRFTISRDNAKNSLYLQMNSMRADDTAVYYCARDKRSGMTSDRRIDYWGQGTRVTVSS
VL: DIQMTQSPSSLSASVGDRITITCRASQSVGTYLSWFQQKPGKAPKLLIYAASSLQSGVPSRFSGSGSGTDFTLTISSLQPEDFATYFCQQSYSVPPWTFGQGTKVEIKR
notes: as for B1
Question: Does B5 bind [6]?
Answer: Result: binds

Question: Does B5 bind [7]?
Answer: Result: binds

B6: TBRE1039 (antibody, V domains shown)
VH: PVQLVQSGAEVKKPGSSVKVSCKASGGTFSSYAISWVRQAPGQGLEWMGGIIPIFGTANYAQKFQGRVTITADESTSTAYMELSSLRSEDTAVYYCARENWNSAGTTEWFDPWGQGTLVTVSS
VL: PYVLTQPPSVSVAPGKTARITCGGNNIGSKSVHWYQQKPGQAPVLVIYYDSDRPSGIPERFSGSNSGNTATLTISRVEAGDEADYYCQVWDSSSDHYVVFGGGTKLTVLG
notes: as for B1
Question: Does B6 bind [8]?
Answer: Result: binds

Question: Does B6 bind [9]?
Answer: Result: binds

Question: Does B6 bind [10]?
Answer: Result: binds

B7: TBRE1036 (antibody, V domains shown)
VH: QVQLVESGGGVVQPGRSLRLSCAASGFTFSSYAMHWVRQAPGKGLEWVAVISYDGSNKYYADSLKGRFTISRDNSKDTLYLQVNSLRPEDTAVYYCARVNIAAAGTLDYWGQGTLVTVSS
VL: EIVLTQSPGTLSLSPGERATLSCRASQSVSSRYLAWYQQKPGQAPRLLIHGASSRATGIPDRFSGSGSGTDFTLTISRLEPEDFAVYYCQQYGSAWTFGQGTKVEIKR
notes: as for B1
Question: Does B7 bind [11]?
Answer: Result: binds
